This assay concerns the target Chaetomium thermophilum Pmt4 (protein O-mannosyltransferase 4), wild-type full-length (Chaetomium thermophilum). Nature of the assay: native MS; ctPmt4 purified in DDM, exchanged into 200 mM ammonium acetate pH 8.0 with 2x CMC detergent; Q Exactive UHMR, negative polarity; monomer and dimer peaks seen.

For “Chaetomium thermophilum Pmt4 (protein O-mannosyltransferase 4), wild-type full-length (enzyme)”, the stoichiometry N (in general, the number of molecules, sites or subunits per partner or assembly) worked out at 2.
